The source of these data is paper PMC4598300.

Broadly, the stoichiometry N is the number of molecules, sites or subunits per partner or assembly.

The test concerns the target tag-free PTEN (human) (UniProt P60484). Briefly: SEC-SAXS. In general terms: In gel filtration, larger molecules generally elute earlier.

“tag-free PTEN, P60484 1-403 (enzyme; other documents disagree on this pair)”: the stoichiometry N was 2.
